Substitutions are numbered along the chain they refer to.
Key:
[1] = biological target: T1, XENP23311 (His-tagged NKG2D-Fc) (human, UniProt P26718 78-216); assay: Octet
T1 chain: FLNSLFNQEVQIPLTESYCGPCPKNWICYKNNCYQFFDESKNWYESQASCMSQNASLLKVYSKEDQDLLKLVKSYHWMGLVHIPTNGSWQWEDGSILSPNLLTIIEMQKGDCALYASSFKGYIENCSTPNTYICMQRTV

[2] = biological target: CD16 (UniProt P08637 17-208)
Chain of CD16 (P08637 17-208): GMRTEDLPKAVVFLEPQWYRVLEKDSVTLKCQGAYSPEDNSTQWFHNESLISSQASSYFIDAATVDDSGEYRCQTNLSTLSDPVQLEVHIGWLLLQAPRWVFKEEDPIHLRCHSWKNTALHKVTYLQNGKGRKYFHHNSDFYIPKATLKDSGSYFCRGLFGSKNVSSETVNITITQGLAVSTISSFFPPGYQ

B1: XENP40888 (LB_1002, 2+1 VHVL) (antibody)
chain 1: EVQLLESGGGLVQPGGSLRLSCAVSGFSLSSYGVIWVRQAPGKGLEYVSWVSSGGSTNYASSVKGRFTISRDTSKNTVYLQMNSLRAEDTAVYFCARGATNSGTDIWGPGTLVTVSSASTKGPSVFPLAPSSKSTSGGTAALGCLVKDYFPEPVTVSWNSGALTSGVHTFPAVLQSSGLYSLSSVVTVPSSSLGTQTYICNVNHKPSDTKVDKKVEPKSCDKTHTCPPCPAPELLGGPSVFLFPPKPKDTLMISRTPEVTCVVVDVSHEDPEVKFNWYVDGVEVHNAKTKPREEEYNSTYRVVSVLTVLHQDWLNGKEYKCKVSNKALPAPIEKTISKAKGQPREPQVYTLPPSREEMTKNQVSLTCDVSGFYPSDIAVEWESDGQPENNYKTTPPVLDSDGSFFLYSKLTVDKSRWEQGDVFSCSVMHEALHNHYTQKSLSLSPGK
chain 2: EVQLLESGGGLVQPGGSLRLSCAVSGFSLSSYGVIWVRQAPGKGLEYVSWVSSGGSTNYASSVKGRFTISRDTSKNTVYLQMNSLRAEDTAVYFCARGATNSGTDIWGPGTLVTVSSASTKGPSVFPLAPSSKSTSGGTAALGCLVKDYFPEPVTVSWNSGALTSGVHTFPAVLQSSGLYSLSSVVTVPSSSLGTQTYICNVNHKPSNTKVDKKVEPKSCGGGGSGGGGSEVQLVESGGGLVKPGGSLRLSCAASGFTFSSYSMNWVRQAPGKGLEWVSSISSSSSYIYYADSVKGRFTISRDNAKNSLYLQMNSLRAEDTAVYYCARGAPMGAAAGWFDPWGQGTLVTVSSGKPGSGKPGSGKPGSGKPGSDIQMTQSPSSVSASVGDRVTITCRASQGISSWLAWYQQKPGKAPKLLIYAASSLQSGVPSRFSGSGSGTDFTLTISSLQPEDFATYYCQQGVSFPRTFGGGTKVEIKGGGGSGGGGSKTHTCPPCPAPELLGGPSVFLFPPKPKDTLMISRTPEVTCVVVDVSHEDPEVKFNWYVDGVEVHNAKTKPREEQYNSTYRVVSVLTVLHQDWLNGKEYKCKVSNKALPAPIEKTISKAKGQPREPQVYTLPPSREQMTKNQVKLTCLVKGFYPSDIAVEWESNGQPENNYKTTPPVLDSDGSFFLYSKLTVDKSRWQQGNVFSCSVMHEALHNHYTQKSLSLSPGK
chain 3: DIVMTQSPSSLSASVGDRVTITCRASQSINSWLSWYQQKPGKPPKLLIYGASNLASGVPSRFKGSGSGTDFTLTISSLQPEDFATYYCQNNYGIIAAGATFGGGTKVEIKRTVAAPSVFIFPPSDEQLKSGTASVVCLLNNFYPREAKVQWKVDNALQSGNSQESVTEQDSKDSTYSLSSTLTLSKADYEKHKVYACEVTHQGLSSPVTKSFNRGEC
[1]
  Kd: 158 nM

B2: XENP41341 (LB_1001, mAb-scFv VLVH) (antibody)
chain 1: B1 chain 1
chain 2: not shown
chain 3: B1 chain 3
[1]
  Kd: 359 nM

B3: XENP41338 (LB_1002, 2+1 VLVH) (antibody)
chain 1: B1 chain 1
chain 2: EVQLLESGGGLVQPGGSLRLSCAVSGFSLSSYGVIWVRQAPGKGLEYVSWVSSGGSTNYASSVKGRFTISRDTSKNTVYLQMNSLRAEDTAVYFCARGATNSGTDIWGPGTLVTVSSASTKGPSVFPLAPSSKSTSGGTAALGCLVKDYFPEPVTVSWNSGALTSGVHTFPAVLQSSGLYSLSSVVTVPSSSLGTQTYICNVNHKPSNTKVDKKVEPKSCGGGGSGGGGSDIQMTQSPSSVSASVGDRVTITCRASQGISSWLAWYQQKPGKAPKLLIYAASSLQSGVPSRFSGSGSGTDFTLTISSLQPEDFATYYCQQGVSFPRTFGGGTKVEIKGKPGSGKPGSGKPGSGKPGSEVQLVESGGGLVKPGGSLRLSCAASGFTFSSYSMNWVRQAPGKGLEWVSSISSSSSYIYYADSVKGRFTISRDNAKNSLYLQMNSLRAEDTAVYYCARGAPMGAAAGWFDPWGQGTLVTVSSGGGGSGGGGSKTHTCPPCPAPELLGGPSVFLFPPKPKDTLMISRTPEVTCVVVDVSHEDPEVKFNWYVDGVEVHNAKTKPREEQYNSTYRVVSVLTVLHQDWLNGKEYKCKVSNKALPAPIEKTISKAKGQPREPQVYTLPPSREQMTKNQVKLTCLVKGFYPSDIAVEWESNGQPENNYKTTPPVLDSDGSFFLYSKLTVDKSRWQQGNVFSCSVMHEALHNHYTQKSLSLSPGK
chain 3: B1 chain 3
[1]
  Kd: 630 nM

B4: XENP40457 (LB_1002, 1+1 VHVL) (antibody)
chain 1: B1 chain 1
chain 2: not shown
chain 3: B1 chain 3
[1]
  Kd: 458 nM

B5: XENP41342 (LB_1002, mAb-scFv VLVH) (antibody)
chain 1: B1 chain 1
chain 2: not shown
chain 3: B1 chain 3
[1]
  Kd: 680 nM

B6: XENP40558 (1D7B4, mAb-scFv VHVL) (antibody)
chain 1: B1 chain 1
chain 2: not shown
chain 3: B1 chain 3
[1]
  Kd: 28.8 nM

B7: XENP41333 (LB_1001, 1+1 VLVH) (antibody)
chain 1: B1 chain 1
chain 2: not shown
chain 3: B1 chain 3
[1]
  Kd: 42 nM

B8: XENP41344 (1D7B4, mAb-scFv VLVH) (antibody)
chain 1: B1 chain 1
chain 2: not shown
chain 3: B1 chain 3
[1]
  Kd: 28.9 nM

B9: XENP40891 (LB_1002, mAb-scFv VHVL) (antibody)
chain 1: B1 chain 1
chain 2: not shown
chain 3: B1 chain 3
[1]
  Kd: 327 nM

B10: XENP41337 (LB_1001, 2+1 VLVH) (antibody)
chain 1: B1 chain 1
chain 2: not shown
chain 3: B1 chain 3
[1]
  Kd: 278 nM

B11: XENP40590 (1D7B4, 2+1 VHVL) (antibody)
chain 1: B1 chain 1
chain 2: not shown
chain 3: B1 chain 3
[1]
  Kd: 21.9 nM

B12: XENP41336 (1D7B4, 1+1 VLVH) (antibody)
chain 1: B1 chain 1
chain 2: not shown
chain 3: B1 chain 3
[1]
  Kd: 13.9 nM

B13: XENP40587 (1D2B4, 2+1 VHVL) (antibody)
chain 1: B1 chain 1
chain 2: not shown
chain 3: B1 chain 3
[1]
  Kd: 59.8 nM

B14: XENP40555 (1D2B4, mAb-scFv VHVL) (antibody)
chain 1: B1 chain 1
chain 2: not shown
chain 3: B1 chain 3
[1]
  Kd: 83.8 nM

B15: XENP40381 (LB_1001, 1+1 VHVL) (antibody)
chain 1: B1 chain 1
chain 2: not shown
chain 3: B1 chain 3
[1]
  Kd: 84.5 nM

B16: XENP41334 (LB_1002, 1+1 VLVH) (antibody)
chain 1: B1 chain 1
chain 2: not shown
chain 3: B1 chain 3
[1]
  Kd: 97.3 nM

B17: XENP40584 (LB_1001, 2+1 VHVL) (antibody)
chain 1: B1 chain 1
chain 2: not shown
chain 3: B1 chain 3
[1]
  Kd: 122 nM

B18: XENP40372 (1D2B4, 1+1 VHVL) (antibody)
chain 1: B1 chain 1
chain 2: not shown
chain 3: B1 chain 3
[1]
  Kd: 35.7 nM

B19: XENP41335 (1D2B4, 1+1 VLVH) (antibody)
chain 1: B1 chain 1
chain 2: not shown
chain 3: B1 chain 3
[1]
  Kd: 41.7 nM

B20: XENP41343 (1D2B4, mAb-scFv VLVH) (antibody)
chain 1: B1 chain 1
chain 2: not shown
chain 3: B1 chain 3
[1]
  Kd: 115 nM

B21: XENP41030 (antibody)
chain 1: B1 chain 1 with I332E
chain 2: not shown
chain 3: B1 chain 3
[2]
  Kd: 203 nM

B22: XENP41340 (1D7B4, 2+1 VLVH) (antibody)
chain 1: B1 chain 1
chain 2: not shown
chain 3: B1 chain 3
[1]
  Kd: 18.4 nM

B23: XENP40552 (LB_1001, mAb-scFv VHVL) (antibody)
chain 1: B1 chain 1
chain 2: not shown
chain 3: B1 chain 3
[1]
  Kd: 95.1 nM

B24: XENP41027 (antibody)
chain 1: B1 chain 1
chain 2: EVQLLESGGGLVQPGGSLRLSCAVSGFSLSSYGVIWVRQAPGKGLEYVSWVSSGGSTNYASSVKGRFTISRDTSKNTVYLQMNSLRAEDTAVYFCARGATNSGTDIWGPGTLVTVSSGKPGSGKPGSGKPGSGKPGSDIVMTQSPSSLSASVGDRVTITCRASQSINSWLSWYQQKPGKPPKLLIYGASNLASGVPSRFKGSGSGTDFTLTISSLQPEDFATYYCQNNYGIIAAGATFGGGTKVEIKEPKSSDKTHTCPPCPAPELLGGPSVFLFPPKPKDTLMISRTPEVTCVVVDVSHEDPEVKFNWYVDGVEVHNAKTKPREEQYNSTYRVVSVLTVLHQDWLNGKEYKCKVSNKALPAPEEKTISKAKGQPREPQVYTLPPSREQMTKNQVKLTCLVKGFYPSDIAVEWESNGQPENNYKTTPPVLDSDGSFFLYSKLTVDKSRWQQGNVFSCSVMHEALHNHYTQKSLSLSPGK
chain 3: B1 chain 3
[2]
  Kd: 242 nM

B25: XENP41022 (antibody)
chain 1: B1 chain 1 with S239D, I332E
chain 2: B24 chain 2 with S271D
chain 3: B1 chain 3
[2]
  Kd: 28.9 nM

B26: XENP41339 (1D2B4, 2+1 VLVH) (antibody)
chain 1: B1 chain 1
chain 2: not shown
chain 3: B1 chain 3
[1]
  Kd: 83.1 nM

B27: XENP40375 (1D7B4, 1+1 VHVL) (antibody)
chain 1: B1 chain 1
chain 2: not shown
chain 3: B1 chain 3
[1]
  Kd: 7.72 nM

From US20230151095A1 (published 2023)
